# Source: patent US20220340682A1 (Sanofi, published 2022)
# T1: hCEACAM5, human CEACAM5 ECD (35-685) (human, UniProt P06731 35-685)
# T1 construct: produced in HEK293; also called human CEACAM5 protein; human CEACAM5 extracellular domain
# T1 sequence: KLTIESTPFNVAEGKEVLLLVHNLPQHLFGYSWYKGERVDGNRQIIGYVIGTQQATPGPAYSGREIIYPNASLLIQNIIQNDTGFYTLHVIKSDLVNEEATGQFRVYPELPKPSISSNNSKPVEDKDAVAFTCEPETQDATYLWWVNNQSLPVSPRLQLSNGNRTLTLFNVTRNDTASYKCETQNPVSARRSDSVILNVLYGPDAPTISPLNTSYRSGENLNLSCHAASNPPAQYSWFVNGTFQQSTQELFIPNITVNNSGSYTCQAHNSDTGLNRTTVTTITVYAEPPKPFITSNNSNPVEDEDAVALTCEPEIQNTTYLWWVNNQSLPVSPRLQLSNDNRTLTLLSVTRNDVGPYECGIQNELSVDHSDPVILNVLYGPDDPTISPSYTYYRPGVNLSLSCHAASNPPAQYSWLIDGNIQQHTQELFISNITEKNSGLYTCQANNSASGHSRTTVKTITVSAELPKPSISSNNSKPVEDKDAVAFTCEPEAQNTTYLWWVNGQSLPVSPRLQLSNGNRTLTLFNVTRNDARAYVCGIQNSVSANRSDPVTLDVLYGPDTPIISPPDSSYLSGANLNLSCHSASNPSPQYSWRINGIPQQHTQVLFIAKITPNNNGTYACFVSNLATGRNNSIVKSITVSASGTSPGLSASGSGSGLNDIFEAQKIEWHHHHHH
# T2: cCEACAM5, M. fascicularis CEACAM5 ECD (35-688) (Macaca fascicularis)
# T2 construct: ECD followed by a 24 amino acid extension containing a His-Tag; also called cynomolgus CEACAM5; monkey CEACAM5
# T2 chain: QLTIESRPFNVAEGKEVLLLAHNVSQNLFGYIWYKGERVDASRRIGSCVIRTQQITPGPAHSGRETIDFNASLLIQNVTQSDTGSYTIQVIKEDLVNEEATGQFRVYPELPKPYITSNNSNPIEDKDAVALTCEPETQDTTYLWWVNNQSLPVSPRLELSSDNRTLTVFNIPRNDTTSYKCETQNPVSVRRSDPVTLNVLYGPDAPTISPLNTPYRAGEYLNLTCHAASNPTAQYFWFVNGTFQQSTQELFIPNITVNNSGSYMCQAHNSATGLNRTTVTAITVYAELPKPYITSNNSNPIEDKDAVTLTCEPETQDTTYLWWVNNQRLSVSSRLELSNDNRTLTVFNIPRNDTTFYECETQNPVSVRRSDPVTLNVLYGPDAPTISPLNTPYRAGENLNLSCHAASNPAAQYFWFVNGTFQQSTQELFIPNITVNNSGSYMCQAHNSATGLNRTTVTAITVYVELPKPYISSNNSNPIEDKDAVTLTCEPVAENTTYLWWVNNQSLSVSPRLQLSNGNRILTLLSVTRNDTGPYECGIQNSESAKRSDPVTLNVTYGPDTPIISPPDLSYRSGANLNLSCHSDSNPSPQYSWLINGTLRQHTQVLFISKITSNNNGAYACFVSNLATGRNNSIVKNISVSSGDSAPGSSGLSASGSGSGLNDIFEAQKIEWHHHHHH
# T3: cCEACAM1, M. fascicularis CEACAM1 ECD (35-428) (Macaca fascicularis)
# T3 construct: With 24 amino acid extension containing a His-Tag; also called cynomolgus CEACAM1
# T3 chain: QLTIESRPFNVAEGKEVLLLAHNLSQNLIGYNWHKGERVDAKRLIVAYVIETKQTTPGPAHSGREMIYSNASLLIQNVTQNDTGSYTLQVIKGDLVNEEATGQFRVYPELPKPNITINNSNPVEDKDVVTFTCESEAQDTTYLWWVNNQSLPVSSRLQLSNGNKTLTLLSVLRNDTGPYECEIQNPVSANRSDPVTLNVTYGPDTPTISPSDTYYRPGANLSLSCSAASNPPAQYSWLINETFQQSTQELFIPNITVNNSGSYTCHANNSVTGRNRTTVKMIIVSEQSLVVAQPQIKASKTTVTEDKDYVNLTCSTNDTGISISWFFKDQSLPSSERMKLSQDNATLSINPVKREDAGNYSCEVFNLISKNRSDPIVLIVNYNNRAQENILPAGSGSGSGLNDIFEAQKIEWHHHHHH
# T4: cCEACAM6, M. fascicularis CEACAM6 ECD (35-327) (Macaca fascicularis)
# T4 construct: With 24 amino acid extension containing a His-Tag; also called cynomolgus CEACAM6
# T4 chain: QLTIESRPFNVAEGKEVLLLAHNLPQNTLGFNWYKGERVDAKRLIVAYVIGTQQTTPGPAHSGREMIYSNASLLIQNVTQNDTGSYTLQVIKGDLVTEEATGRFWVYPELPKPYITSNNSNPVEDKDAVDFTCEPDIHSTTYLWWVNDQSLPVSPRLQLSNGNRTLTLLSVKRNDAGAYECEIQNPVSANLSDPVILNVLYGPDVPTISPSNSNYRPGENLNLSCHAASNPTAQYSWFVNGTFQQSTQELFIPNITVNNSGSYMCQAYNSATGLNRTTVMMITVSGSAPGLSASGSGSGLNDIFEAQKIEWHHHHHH
# T5: cCEACAM8, M. fascicularis CEACAM8 ECD (35-332) (Macaca fascicularis)
# T5 construct: With 24 amino acid extension containing a His-Tag; also called cynomolgus CEACAM8
# T5 chain: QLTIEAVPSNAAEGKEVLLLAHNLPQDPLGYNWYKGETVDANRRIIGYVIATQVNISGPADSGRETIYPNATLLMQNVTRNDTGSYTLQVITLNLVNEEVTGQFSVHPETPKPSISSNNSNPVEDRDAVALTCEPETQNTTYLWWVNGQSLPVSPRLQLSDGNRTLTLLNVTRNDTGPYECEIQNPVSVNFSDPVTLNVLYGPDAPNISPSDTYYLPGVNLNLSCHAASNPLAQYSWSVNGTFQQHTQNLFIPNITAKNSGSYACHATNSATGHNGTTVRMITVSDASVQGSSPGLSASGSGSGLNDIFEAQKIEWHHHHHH
# How the values were obtained:
# [1] = target: T1, hCEACAM5, human CEACAM5 ECD (35-685); assay: ELISA, murine hybridoma mAb
# [2] = target: T2, cCEACAM5, M. fascicularis CEACAM5 ECD …; assay: ELISA, murine hybridoma mAb
# [3] = target: T3, cCEACAM1, M. fascicularis CEACAM1 ECD …; assay: ELISA
# [4] = target: T4, cCEACAM6, M. fascicularis CEACAM6 ECD …; assay: ELISA
# [5] = target: T5, cCEACAM8, M. fascicularis CEACAM8 ECD …; assay: ELISA
# [6] = target: T2, cCEACAM5, M. fascicularis CEACAM5 ECD …; assay: ELISA
# [7] = target: T1, hCEACAM5, human CEACAM5 ECD (35-685); assay: ELISA
# [8] = target: T2, cCEACAM5, M. fascicularis CEACAM5 ECD …; assay: ELISA
EC50 [1] [nM],EC50 [2] [nM],percentage of binding compared to full binding with cynomolgus CEACAM5 [3] [%],percentage of binding compared to full binding with cynomolgus CEACAM5 [4] [%],percentage of binding compared to full binding with cynomolgus CEACAM5 [5] [%],percentage of binding compared to full binding with cynomolgus CEACAM5 [6] [%],EC50 [7] [nM],EC50 [8] [nM],Binder
0.08,0.05,,,,,,,"antibody MAb4 (antibody, IgG1, V domains shown, Murine monoclonal from hybridoma, IgG1, kappa) VH: EVQLVESGGGLVKPGGSLKLSCAASGFTFSSYDMSWVRQTPEKRLEWVAFISSYGGRTYYADTVKGRFTISRDNAKNTLYLQMSSLKSEDTAMFYCAAHYFGTSGPFAYWGQGTLVTVSA VL: DIQMTQSPASLSASVGETVTITCRASENIYSYFAWYQQKQGKSPQLLVYNAKILAEGVPSRFSGSGSGTQFSLKINSLQPEDFGTYYCQHHYGIPFTFGSGTKLELK"
0.4,0.45,,,,,,,"antibody MAb5 (antibody, IgG1, V domains shown, Murine monoclonal from hybridoma, IgG1, kappa) VH: ELQLVESGGVLVKPGGSLKLSCAASGFAFSSYDMSWVRQTPEKRLEWVTYINSGGGITYYPDTVKGRFTISRDNARNTLYLQMSSLKSEDTAIYYCTAHYFGSSGPFAYWGQGTLVTVSA VL: DIQMTQSPASLSASVGETVTITCRASENIYSYLAWYQQKQGKSPQLLVYNAKTLTEGVPSRFSGSGSGTQFSLKINSLQPEDFGSYYCQHHYGTPFTFGSGTKLEIK"
,,0.3,0.4,1.2,100,0.18,0.19,"huMAb2-3 (antibody, human IgG1, kappa, V domains shown, Humanized MAb2, human IgG1 / Ckappa; also called MAb2_VL1cVH1a-IgG1) VH: EVQLQESGPGLVKPGGSLSLSCAASGFVFSSYDMSWVRQTPERGLEWVAYISSGGGITYAPSTVKGRFTVSRDNAKNTLYLQMNSLTSEDTAVYYCAAHYFGSSGPFAYWGQGTLVTVSS VL: DIQMTQSPASLSASVGDRVTITCRASENIFSYLAWYQQKPGKSPKLLVYNTRTLAEGVPSRFSGSGSGTDFSLTISSLQPEDFATYYCQHHYGTPFTFGSGTKLEIKR"
,,0.3,0.3,3.6,100,0.22,0.2,"huMAb2-1 (antibody, V domains shown, Humanized MAb2 (VL1 + VH1) fused to human IgG1 and human Ckappa constant domains; also called MAb2_VL1VH1-IgG1; MAb2VL1VH1-IgG1) VH: EVQLQESGPGLVKPGGSLSLSCAASGFVFSSYDMSWVRQTPERRLEWVAYISSGGGITYFPSTVKGRFTVSRDNAKNTLYLQMNSLTSEDTAIYYCAAHYFGSSGPFAYWGQGTLVTVSA VL: DIQMTQSPASLSASVGDTVTITCRASENIFSYLAWYQQKPGKSPKLLVYNTKTLAEGVPSRFSGSGSGTQFSLTISSLQPEDFGSYYCQHHYGTPFTFGSGTKLEIK"
,,0.3,0.3,0.9,100,0.2,0.17,"huMAb2-2 (antibody, V domains shown, Humanized MAb2 (VL1a + VH1a) fused to human IgG1 and human Ckappa constant domains; also called MAb2_VL1aVH1a-IgG1; MA2_VL1aVH1a-IgG1) VH: EVQLQESGPGLVKPGGSLSLSCAASGFVFSSYDMSWVRQTPERGLEWVAYISSGGGITYAPSTVKGRFTVSRDNAKNTLYLQMNSLTSEDTAVYYCAAHYFGSSGPFAYWGQGTLVTVSS VL: DIQMTQSPASLSASVGDRVTITCRASENIFSYLAWYQQKPGKSPKLLVYNTKTLAEGVPSRFSGSGSGTDFSLTISSLQPEDFATYYCQHHYGTPFTFGSGTKLEIK"
,,0.2,0.3,1.2,100,0.16,0.17,"chMAb2 (antibody, human IgG1, kappa, V domains shown, Chimeric, human IgG1, Ck isotype; also called MAb2-IgG1; chimeric MAb2) VH: EVQLQESGGVLVKPGGSLKLSCAASGFVFSSYDMSWVRQTPEKRLEWVAYISSGGGITYFPDTVQGRFTVSRDNAKNTLYLQMNSLKSEDTAIYYCAAHYFGSSGPFAYWGQGTLVTVSA VL: DIQMTQSPASLSASVGETVTITCRASENIFSYLAWYQQKQGKSPQLLVYNTKTLAEGVPSRFSGSGSGTQFSLKINSLQPEDFGSYYCQHHYGTPFTFGSGTKLEIKR"
,,0.3,0.3,3.2,100,0.22,0.17,"huMAb2-4 (antibody, human IgG1, kappa, V domains shown, Humanized MAb2, human IgG1 / Ckappa; also called MAb2_VL1d VH1-IgG1; MAb2_VL1dVH1-IgG1) VH: EVQLQESGPGLVKPGGSLSLSCAASGFVFSSYDMSWVRQTPERRLEWVAYISSGGGITYFPSTVKGRFTVSRDNAKNTLYLQMNSLTSEDTAIYYCAAHYFGSSGPFAYWGQGTLVTVSA VL: DIQMTQSPASLSASVGDTVTITCRASENIFSYLAWYQQKPGKSPKLLVYNTRTLAEGVPSRFSGSGSGTQFSLTISSLQPEDFGSYYCQHHYGTPFTFGSGTKLEIKR"
,1.18,,,,,,,"antibody MAb1 (antibody, IgG1, V domains shown) VH: EVMLVESGGGLVKPGGSLKLSCAASGFTFSSYAMSWVRQTPEKRLEWVATISSGGSYIYYLDSVKGRFTISRDNAKNTLYLQMSSLRSEDTAMYYCARPAYYGNPAMDYWGQGTSVTVSS VL: DILMTQSQKFMSTSVGDRVSVTCKASQNVGTNVAWYQQKPGQSPKPLIYSASYRYSGVPDRFTGSGSGTDFTLTISNVQSEDLAEYFCQQYNSYPLYTFGGGTKLEIK"
0.36,3.72,,,,,,,"antibody MAb3 (antibody, IgG1, V domains shown, Murine monoclonal from hybridoma, IgG1, kappa) VH: EVKLVESGGGLVKPGGSLTLPCAASGFTFSRYAMSWVRQTPEKRLEWVASISSGGDTYYPDSVKGRFTVSRDNARNILFLQMSSLRSEDTGMYYCARVNYYDSSFLDWWGQGTTLTVSS VL: DIVMTQSQRFMSTLEGDRVSVTCKASQNVGTNVAWYQQKPGQSPKALIYSASYRYSGVPDRFTGSGSGTDFTLTISNVQSEDLAEYFCQQYNNYPLYTFGGGTKLEIK"
